Literature values as cited in article PMC9363672.

Target: syndecan 3 (Homo sapiens) (UniProt O75056)
UniProt O75056, sequence (O75056 whole entry): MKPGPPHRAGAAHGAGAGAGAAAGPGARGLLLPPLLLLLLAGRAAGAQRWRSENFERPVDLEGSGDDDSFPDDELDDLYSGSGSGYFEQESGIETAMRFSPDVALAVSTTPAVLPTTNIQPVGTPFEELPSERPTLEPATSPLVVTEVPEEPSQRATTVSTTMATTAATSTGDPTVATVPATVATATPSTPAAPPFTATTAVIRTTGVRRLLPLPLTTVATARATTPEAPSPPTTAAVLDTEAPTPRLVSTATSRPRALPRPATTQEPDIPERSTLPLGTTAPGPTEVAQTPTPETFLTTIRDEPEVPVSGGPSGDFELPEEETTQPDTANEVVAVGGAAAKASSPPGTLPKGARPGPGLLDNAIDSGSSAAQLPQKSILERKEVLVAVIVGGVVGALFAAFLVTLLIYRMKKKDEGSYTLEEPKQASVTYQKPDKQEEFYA

Kd: 6 nM
Substance: pleiotrophin (from UniProt P21246)
